Experimental data from the DeepSol protein solubility set.

test: soluble on expression in E. coli; label from the status in PepcDB or PDB records

| Sequence | soluble on expression in E. coli |
| --- | --- |
| MAPVVCDVCGVRRAVVLQRHTGRRLCRECFREDIVGRVRREVERWGMIGPGETVLLGLSGGKDSYVLLDALSEIVGPSRLVAVSIVEGIPGYNREGDIEKIRRVAAARGVDVIVTSIREYVGASLYEIYSRARGRGAGHAACTYCGISRRRILALYARLYGAHKVATAHNLDDEAQTAIVNFLRGDWVGMLKTHPLYRSGGEDLVPRIKPLRKVYEWETASYVVLHRYPIQEAECPFINMNPTLRARVRTALRVLEERSPGTLLRMMERLDEELRPLAQAMKPSSLGRCERCGEPTSPKRRLCKLCELLEEAGFQEPIYAIAGRGKRLRLQSPTASPG | not soluble |
| MAPYKKSKQKQQKIQKERLRQQQKLDLAEGSVNIPDQDRSRSQDFSMNSTNSSALQDPLQQQPRPVETEKQQKARKERLRYQMKQLGTPCEPVTFSEEITKQLDELYESDDLPDMGLKSVWKRRLGIPMKKLNDWLKQKAFEKCHVSAQTGSCESSKSNSPSESTKSMGSAVLSSSTEPRTPEESHCAPEKSPESTENASPLSSSAEPETPEETSTSMVQIPENFKNKRLSQDLVDKLQELFQINEMPGREISEQWAQQLGISLKTLNNWMQKKRSQKLHPEQAKLKSQRWQETRRLRRAGLNQEKVEKALPYLEAAFKRCQFATQQTMAELKLNTSLQKSQIRLWFSRRRKAPDATHVPAIESDSDDLVELRALFNATEEDDDSDIEILRDTRQEQEEYRNRPEVRAMIERMFGVGGGGGSLDSGIPLQ | not soluble |
| MAQGEKITVSNGVLNVPNNPIIPFIEGDGTGPDIWNAASKVLEAAVEKAYKGEKKITWKEVYAGEKAYNKTGEWLPAETLDVIREYFIAIKGPLTTPVGGGIRSLNVALRQELDLFVCLRPVRYFTGVPSPVKRPEDTDMVIFRENTEDIYAGIEYAKGSEEVQKLISFLQNELNVNKIRFPETSGIGIKPVSEEGTSRLVRAAIDYAIEHGRKSVTLVHKGNIMKFTEGAFKNWGYELAEKEYGDKVFTWAQYDRIAEEQGKDAANKAQSEAEAAGKIIIKDSIADIFLQQILTRPNEFDVVATMNLNGDYISDALAAQVGGIGIAPGANINYETGHAIFEATHGTAPKYAGLDKVNPSSVILSGVLLLEHLGWNEAADLVIKSMEKTIASKVVTYDFARLMDGATEVKCSEFGEELIKNMD | soluble |
| MAQGFAVGFDPLGLGDLSSGSLSSLSSRGHLGSDSGSTATRYLLRKQQRLLNGPPRGIRASSPMGRVILINSPIEANSDESDIIHSVRVEKSPAGRLGFSVRGGSEHGLGIFVSKVEEGSSAERAGLCVGDKITEVNGLSLESTTMGSAVKVLTSSSRLHMMVRRMGRVPGIKFSKEKTTWVDVVNRRLVVEKCGSTPSDTSSEDGVRRIVHLYTTSDDFCLGFNIRGGKEFGLGIYVSKVDHGGLAEENGIKVGDQVLAANGVRFDDISHSQAVEVLKGQTHIMLTIKETGRYPAYKEMVSEYCWLDRLSNGVLQQLSPASESSSSVSSCASSAPYSSGSLPSDRMDICLGQEEPGSRGPGWGRADTAMQTEPDAGGRVETWCSVRPTVILRDTAIRSDGPHPGRRLDSALSESPKTALLLALSRPRPPITRSQSYLTLWEEKQQRKEKSGSPGEKGALQRSKTLMNLFFKGGRQGRLARDGRREAWTLDSGSLAKTYPRLDIEKEMGAT | soluble |
| MAQGNQQIDNQVLHHLRQKFPEVPEDVVCECVLQNKSDLAACCEYLTKVSPRFLYSEGSQSLTDLRNHMTQLNLGVSQNTHGAVQRDAVGMNGSRTLAPSVSDGPLNVPSALSEFYQPETPSVPTHTPASLSMESTRKPQPPQHLGLYQVGGKGHAPPQAPRFNPITVTLAPNTGRNTPTSLHIHGGPQSGLNSPNSIYIRPYVTQPGSTRQVQCRAQYSPTSQPAQQIYQITHPAAPQSSWSQHQTSHVYMPISSPTNTHTHTRFTCVCARVRMPVCLIHGNGR | not soluble |
| MAQNESPAEQLFAAIGLLRRHTRRRVGRPWPETPLTGSQVELVRLLRRRPGTSVAEAAAALGLAANTVSTLVRQLTDAGLVERVRDESDRRVARLALTDDARAQVERWRDRRNIEVAAAFDGLSAEDRKAIESAIPAITRLAGALHPDQAGPSDQEVVR | not soluble |
| MARASGASDYRSGELSHQDERGAAHMVDITEKATTKRTAVAAGILRTSAQVVALISTGGLPKGDALATARVAGIMAAKRTSDLIPLCHQLALTGVDVDFTVGQLDIEITATVRSTDRTGVEMEALTAVSVAALTLYDMIKAVDPGALIDDIRVLHKEGGRRGTWTRR | soluble |
| MARGMNHVYLIGALARDPELRYTGNGMAVFEATVAGEDRVIGNDGRERNLPWYHRVSILGKPAEWQAERNLKGGDAVVVEGTLEYRQWEAPEGGKRSAVNVKALRMEQLGTQPELIQDAGGGVRMSGAMNEVLVLGNVTRDPEIRYTPAGDAVLSLSIAVNENYQDRQGQRQEKVHYIDATLWRDLAENMKELRKGDPVMIMGRLVNEGWTDKDGNKRNSTRVEATRVEALARGAGNANSGYAAATPAAPRTQTASSAARPTSGGYQSQPSRAANTGSRSGGLDIDQGLDDFPPEEDDLPF | soluble |
| MARGPKKHLKRLAAPKAWMLDKLGGVFAPRPSTGPHKLRESLPLLIFLRNRLKYALNGAEVTKIVMQRLVKVDGKVRTDPTYPAGYMDVITLEKTGEFFRLVYDVKGRFVIHRISAEEAKYKLCKVKKTQLGAKGVPFLVTHDGRTIRYPDPLIHANDSVQVDIASGKITDYIKFDSGNLCMITGGRNLGRVGTVVNRERHPGSFDIVHIKDSQGHVFATRLTNVFIIGKGNKPYISLPKGKGVKLSIAEERDKRLAAKTH | not soluble |
| MARKNQKAPWEPEEEIIWVSKSEMKRDMEELQKLGEELVGLKPAVLEKFPLSEDLREAIADAQRFKNEARRRQLQRIGKLMRYEDPEPIQAALDKVRNKHSQATAALHKLEMLRDRVVEEGDKAIDDVMELYPEADRQRLRQLARQAAKEKKAGKPAKSYREIFQILKALNEEE | soluble |
| MARKTKPLTDTEIKAAKPKDADYQLYDGDGLTLLIKSSGSKLWQFRYYRPLTKQRTKQSFGAYPAVSLSDARKLRAESKVLLAKDIDPQEHQKEQVRNSQEAKTNTFLLVAERWWNVKKTSVTEDYADDIWRSLERDIFPAIGDISITEIKAHTLVKAVQPVQARGALETVRRLCQRINEVMIYAQNTGLIDAVPSVNIGKAFEKPQKKNMPSIRPDQLPQLMHTMRTASISMSTRCLFMWQLLTITRPAEAAEARWDEIDFNASEWKIPAARMKMNRDHTVPLSDGALAILEMMKPLSGGREFIFPSRIKPNQPMNSQTVNAALKRAGLGGVLVSHGLRSIASTALNEEGFPPDVIEAALAHVDKNEVRRAYNRSDYLEQRRPMMQWWADLVKAADSGSIVLTHLSKIRLVG | soluble |
| MARLSQEIILDMAEQIIYEKGMEKTTLYDIAGNLNVTHAALYKHYRNKEDLFQKLALRWLEETSREIFAWTKEKDASPDDALHDWLWLLADTKKTLYKTDRKMFLLYTDYIEQKEELVKNHIEHLAQKAEEVSGRVNQGDAIITAFIYFHNPYFASRWEKAGYVELFERVWQVVR | not soluble |
| MARPLKQGIDYFPLSVDFLRDIKVRKIKRACGPYTVEILLCLLGNIYRETGYYIGWDEDTMFLVADEVGAKEGLVEETVNKAVQVGFFNQEKFNEYRILTSNGIQKRYLEATKKRKEVVISDIYLVNDTIKDEETLVNGVDNEQSKVNKSKVDKSKVNKNNKEKPAVQLSSEKDFLENPLGDKKTAELIAYYSKNVSLATPVNMTNLAYDLKDFNGDLDLLKEAINICSSNVKTYAYFAGILKQWRANGINTHADFLKKVNKKSKQKNKRDSEPPLNDYSGLF | not soluble |
| MARRISSQGKVTISVDEYSSNPTQAFTHYNINQSRFQPPHVHMVEPLPYDAPKSVGHTRFVCVSDTHSRTDGIQMPFGDVLLHTGDFTELGLPSEVKKFNDWLGGLPYEYKVVIAGNHELTFDKDFMAELIKQDYYRFPSVSKLRSEDFDDVQSLLTNCVYLQDSEVTIKGFRIYGAPWTPWFNGWGFNLPRGQSLLDKWNQIPEDVDILMTHGPPLGFRDWVPKELQRVGCVELLNTVQKRVRPKLHAYGGIHEGYGIMTDGYTTFINSSTCTVSFQPTNPPIIFDLPNPGNS | not soluble |
| MARTLFLEEGPMFFEKIAPYTYRIPRQGKMRVDAVFFASKEILKDLEAENYASLQQLMNVATLPGIVEPALAMPDIHWGYGFPIGGVAAFDPEEGGVVSPGGVGFDINCGVRLLASHLTLEDLLPRQKELADALYRLVPSGVGSERRDVRFSKRELKEILKEGAGWLVKRGYGYPEDVRFIESQGRLPWANPDKVSERAFERGAPQIGTLGSGNHFLEVQYVDEVYDEEAALAFGLFKGQVTVLIHTGSRGLGHQVCQDYVERFLKVAPRYGIELVDKQLAAAPIKSPEGQDYLQAMAAAANFAFANRQLIAHFVREAFEKVGFTPRDHGLRVLYDLAHNNAKFEEHRGRRVLVHRKGATRAFGPGHPEVPEEYRRVGQPVLVPGDMGRYSYVLAGTEKAMEVSFGSSCHGAGRKMSRHQAKKVARERNLVKELAERGILVRAATRATVDEEMPEAYKDVSLVVEAVEGAGIGKKVARLRPLIVVKG | soluble |
| MARVRFENKRVNMSKLSQFGFEPNQNGQYQFRILIMQGQFEMIIELNTDGSLNTTLTDTTTSEVYVLHLTSQAHGQFVGQVAQAYQDVLYNIEQHCYDNDVFQSTPERKLIAQVKAAYGDDLEFLWPKFPQNAVWRRSDTHKWYGALLTVTSDKLALPGATHVVTVLDLRARPEDLSMLIDGQHYLPGYHMNKKHWYSILLDDVVPLATIMDDVKVSYMLAKLEHHHHHH | not soluble |
| MASDLESSLTSIDWLPQLTLRATIEKLGSASQAGPPGSSRKCSPGSPTDPNATLSKDEAAVHQDGKPRYSYATLITYAINSSPAKKMTLSEIYRWICDNFPYYKNAGIGWKNSIRHNLSLNKCFRKVPRPRDDPGKGSYWTIDTCPDISRKRRHPPDDDLSQDSPEQEASKSPRGGVAGSGEASLPPEGNPQMSLQSPTSIASYSQGTGSVDGGAVAAGASGRESAEGPPPLYNTNHDFKFSYSEINFQDLSWSFRNLYKSMLEKSSSSSQHGFSSLLGDIPPSNNYYMYQQQQPPPPQQQQQQQQPPQPPPQQSQPQQQQAPAQGPSAVGGAPPLHTPSTDGCTPPGGKQAGAEGYGPPPVMAMHPPPLQHGGYHPHQHHPHSHPAQQPPPPQPQAQGQAPINNTGFAFPSDWCSNIDSLKESFKMVNRLNWSSIEQSQFSELMESLRQAEQKNWTLDQHHIANLCDSLNHFLTQTGHVPPQGGTHRPPAPARIADSCALTSGKQESAMSQVNSYGHPQAPHLYPGPSPMYPIPTQDSAGYNRPAHHMVPRPSVPPPGANEEIPDDFDWDLIT | soluble |
| MASDVTVNVSAEKQVIRGFGGMNHPAWAGDLTAAQRETAFGNGQNQLGFSILRIHVDENRNNWYKEVETAKSAVKHGAIVFASPWNPPSDMVETFNRNGDTSAKRLKYNKYAAYAQHLNDFVTFMKNNGVNLYAISVQNEPDYAHEWTWWTPQEILRFMRENAGSINARVIAPESFQYLKNLSDPILNDPQALANMDILGTHLYGTQVSQFPYPLFKQKGAGKDLWMTEVYYPNSDTNSADRWPEALDVSQHIHNAMVEGDFQAYVWWYIRRSYGPMKEDGTISKRGYNMAHFSKFVRPGYVRIDATKNPNANVYVSAYKGDNKVVIVAINKSNTGVNQNFVLQNGSASNVSRWITSSSSNLQPGTNLTVSGNHFWAHLPAQSVTTFVVNRLEHHHHHHHH | soluble |
| MASGDVRIASLVPSITELLFDLGLADQLVARTGFCIHPEPAVRAVAKVGGTKDVKLDRLRALAPTHVVVNIDENRRETVDEIRTFVPHVIVTHPCAPEDNLALYRLLGGIFGRRPQAEALVGQLRGELDAIQAQTWPLEHHHHHH | not soluble |
